For orientation: EC50 means the concentration that produces a half-maximal response. Higher therefore signals weaker potency.

The chains are these.
B1: 405G8F11 (antibody, V domains shown)
VH: DVQLVESGGGLVQPGGSRKLSCVTSGFTFSSFGMHWVRQAPEKGLEWVAYISSGSSPIYYADTVKGRFTISRDNPKNTLFLQMSSLRSEDTAMYFCARFYYGNSFAYWGQGTLVTVSA
VL: DIVMTQSPSSLTVTAGEKVTMNCKSSQSLLNSGNQKNYLTWYQQKLGQPPKLLMYWASTRESGVPDRFTGSGSGTDFTLTISSVQAEDLAVYFCQSAFSYPLTFGAGTKLELK
B2: 392C2F10 (antibody, V domains shown)
VH: EVQLQQSGPELVKPGASMKISCKASGYSFTGYTMNWVKQSLGKNLEWIGLINPFNGGTTYNQKFKGKATLTVDKSSSTAYMELLSLTSDDSAVYYCTRGDYWGQGTTLTVSS
VL: DIVMTQSPSSLTVTAGEKVTMSCKSSQSLLNSGNQKNYLTWYQQKPGQPPKLLIYWASTRESGVPDRFAGSGSGTDFTLTISSVQAEDLAVYYCQSDYSYPTFGAGTKLELK
B3: 277F1F8 (antibody, V domains shown)
VH: QAYLQQSGPELVRSGASVKMSCKASGYTFTSHNMHWVKQTPGQGLEWIGYINPGNGGNNYNQKFKGKATLTADTSSSTAYMQISSLTSEDSAVYFCARDYYGNSFAFWGQGTLVTVSA
VL: DIVMTQSPSSLTETAGEKVSMSCKSSQSLLNSGNQKNYLTWYQQKPGQPPKLLIYWASTRESGVPDRFTGSGSGTDFTLTISSVQAEDLAVYYCQNDYRFPFTFGAGTKLELK
B4: 279E8B8 (antibody, V domains shown)
VH: QAYLQQSGAELVRSGASVKISCKASGYTFASHNMHWVKQTPGQGLEWIGYIYPGNGGTKYNQKFTGKATLSADTSSSTAYLQISSLTSEDSAVYFCARDYFGNSFVYWGQGTLVTVSA
VL: B3 VL with T14K, S22R, E87D, R99M, F100Y
B5: 292D9C7 (antibody, V domains shown)
VH: QVQLKESGPGLVAPSQSLSITCTVSGFSLTDYGVSWIRQPPGKGLEWLGVIWGGGNAYYNSALKSRLSISKDNSKSQVFLKMNSLRTDDTAMYYCAKNGLLRYLDYWGQGSTLTVSS
VL: B3 VL with I2T, E13V, S20T, T75R, A86V, V91I, R99Y, F100Y, F102L, L110V
B6: 198F10B8 (antibody, V domains shown)
VH: QAYLQQSGAELVRSGASVRMSCKASGYTFSSYNMHWVKQTPGQGLEWIGYIYPGNGGTNYNQKFKDKATLTADTSSSTAFIQISSLTSEDSAVYFCLTGRGFAYWGQGTLVTVSA
VL: B3 VL with E13V, K18R, S20T, L30F, W56R, R99S, F100Y, F102L, A106V
B7: 407A8G10 (antibody, V domains shown)
VH: B1 VH with V23A, T24A, S31G, V37I, A40T, S56R, S84T, A106D, Y107H
VL: B3 VL with S10F, E13V, S20T, K24R, K36R, T78A, V91L, D97A, R99S, F102L
B8: 280F3B6 (antibody, V domains shown)
VH: B3 VH with P9A, N52Y, N58T, A97T, F107Y
VL: B3 VL with T14K, K18R, L30F, R99W, F100Y
B9: 286C7F11 (antibody, V domains shown)
VH: B5 VH with G53N, G54R, A57T, K81R, R86Q, N98H, G99D, L100F, Y103F, S111T
VL: B3 VL with I2V, E13V, S20T, L52I, T78S, S82T, Q95L, R99Y, F100Y, F102L
B10: 370E2B12C3 (antibody, V domains shown)
VH: QVQLKESGPGLVAPSQSLSITCTVSGFSLTTYGVHWVRQPPGKGLEWLGVIWAGGSTNYNSALMSRVSINKDNSKSQVFIKMNSLQADDTALYYCARAAYYGNGLDYWGQGTTLTVSS
VL: B3 VL with E13V, S20T, S28T, R60G, Y93F, D97A, R99F, F100Y, A106G, L112I
B11: 394C2G5 (antibody, V domains shown)
VH: B1 VH with V23A, T24A, S31G, V37I, A40T, I51V, S56R, S84T, A106D, Y107H
VL: B3 VL with S10F, E13V, S20T, S82N, S83N, V91L, D97A, R99S, F102L, K113T
B12: 392A11C8 (antibody, V domains shown)
VH: B1 VH with V23A, T24A, S31G, V37I, A40T, S56R, S84T, A106D, Y107H
VL: B3 VL with S10F, E13V, S20T, K24R, V91L, D97A, R99S, F102L
B13: 406E1H7 (antibody, V domains shown)
VH: DVQLVESGGGLVQPGGSRKLSCAASGFTFSGFGMHWIRQTPEKGLEWVAYISSGSRPIYYADTVQGRFTISRDNPKNTLFLQMTSLRSEDTAMYFCARFYYGNSFDHWGQGTLVTVSS
VL: B3 VL with S10F, E13V, S20T, V91L, D97A, R99S, F102L
B14: 406F11G8 (antibody, V domains shown)
VH: B1 VH with V23A, T24A, P75S, S84T, F99I
VL: B3 VL with E13V, S20A, S28T, D97A, R99Y, F100Y, F102L, A106S
B15: 407H12E6 (antibody, V domains shown)
VH: B1 VH with V23A, T24A, F29V, S84T, M93I, A106D, Y107H
VL: B3 VL with E13V, A15T, S20T, P49S, A86T, Y93F, D97N, R99F, F102L
B16: 391H11H3 (antibody, V domains shown)
VH: B13 VH
VL: B3 VL with S10F, E13V, S20T, V91L, D97A, R99S, F102L
B17: 196A12B10 (antibody, V domains shown)
VH: QIQWVQSGPELKKPRETVKISCKASGYTFTDYSMHWVKQAPGKGLKWMGWINSETGEATYADDFRGRFALSLETSATTAFLQINSLKNEDTGTYFCARFYYGNSFASWGQGTTLTVSS
VL: B3 VL with S7F, E13V, S20T, S22T, S32G, Q48L, D76E, D97N, R99Y, F102L
B18: 391F1G2 (antibody, V domains shown)
VH: B1 VH with V23A, T24A, S84T, F99I
VL: B3 VL with E13V, S20A, S28T, I54L, D97A, R99Y, F100Y, F102L, A106S
B19: 393C2C5 (antibody, V domains shown)
VH: B1 VH with V23A, T24A, S84T, R98T
VL: B3 VL with E13V, S20T, S28T, P46S, D97A, R99S, F100Y, F102V, A106S, L110V
B20: 395B3C11 (antibody, V domains shown)
VH: B13 VH
VL: B3 VL with S10F, E13V, S20T, V91L, D97A, R99S, F102L
B21: 407E11H8 (antibody, V domains shown)
VH: B13 VH with G31D, Q65K, A97V, Y101F, S118A
VL: DIVMTQSPSFLTVTAGEKVTMTCRSSQNLLNSGNLKNYLTWYQQKPGQPPKLLISWASTRESGVPDRFTGSGSGTDFTLTISSVQPEDLALYYCQNAYSFPLTFGAGTKLELK
B22: 406G3C4 (antibody, V domains shown)
VH: EIQLQQSGPELMKPGASVRISCKASGYSFISYYIYWVKQSHGKGLEWIGYIDPFNGNTNYNQKFKGKATLTVDRSSSTAYIHLNSLTSEDSAVYYCAIVNGYGRGAMDYWGQGTSVTVSS
VL: QIVLTQSPAIMSASPGEKVTMTCSASSSISYMHWYQQKSGTSPKRWIYDTSKLASGVPARFSGSGSGTSYSLTISSMEAEDAATYYCQQWSSNPLTFGDGTKLELK

Numbering of substitutions follows the chain as printed.

In this assay the target is Claudin18.2-His protein (human). The assay is described as follows: indirect ELISA on coated Claudin18.2-His.
In turn, B1 showed an EC50 of 0.00199 µg/mL.

As for B2, the EC50 stood at 0.0153 µg/mL.

As to B3, the EC50 was 0.0158 µg/mL.

In the case of B4, the EC50 came out at 0.0201 µg/mL.

In the case of B5, the EC50 turned out to be 0.0232 µg/mL.

The molecule B6 came in with an EC50 of 0.0315 µg/mL.

Regarding B7, the EC50 is 0.00554 µg/mL.

For B8, the half-maximal effective concentration (EC50) turned out to be 0.012 µg/mL.

The molecule B9 gave an EC50 of 0.0155 µg/mL. This EC50 and that of the molecule before are within 1.5-fold of each other.

For B10, the EC50 was determined as 0.0156 µg/mL.

The molecule B11 had an EC50 of 0.00846 µg/mL.

B12: the EC50 stood at 0.021 µg/mL.

On to B13, for which the EC50 came to 0.00955 µg/mL.

In turn, B14 showed an EC50 of 0.016 µg/mL.

B15 yielded an EC50 of 0.126 µg/mL. This EC50 lies about 7.9-fold higher than the previous one.

Consider B16, for which the EC50 came out at 0.0162 µg/mL.

B17 yielded an EC50 of 0.0192 µg/mL.

B18 registered an EC50 of 0.00836 µg/mL.

As to B19, the EC50 amounted to 0.0504 µg/mL.

On to B20, for which the EC50 came to 0.00443 µg/mL.

B21 yielded an EC50 of 0.017 µg/mL.

Consider B22, for which the EC50 was determined as 0.00918 µg/mL. Against the preceding molecule, the EC50 is about 1.9-fold lower.

For the origin of these results see patent US20220073643A1.
